This passage reports affinity, times lower than that of the (human) β2-microglobulin results from patent publication US5739281.

In this assay the target is natural affinity purified heavy chain class I K^d molecules. Kind of assay: binding to natural class I heavy chain molecules, format not given (follows the binding inhibition experiment).

Turning to Recombinant murine β2-microglobulin, the affinity, times lower than that of the (human) β2-microglobulin was determined as 5 times lower.
